# Test results from PMC12855180 (Nature Communications, 2025).
# Where two headings read alike, the source gives them in different places.
# B1: FlgL, hook-filament junction protein (unlabeled, for NMR titration) (natural protein)
# chain: MRISTQMMYEQNMSGITNSQAEWMKLGEQMSTGKRVTNPSDDPIAASQAVVLSQAQAQNSQYALARTFATQKVSLEESVLSQVTTAIQTAQEKIVYAGNGTLSDDDRASLATDLQGIRDQLMNLANSTDGNGRYIFAGYKTEAAPFDQATGGYHGGEKSVTQQVDSARTMVIGHTGAQIFNSITSNAVPEPDGSDSEKNLFVMLDTAIAALKTPVEGNNVEKEKAAAAIDKTNRGLKNSLNNVLTVRAELGTQLSELSTLDSLGSDRALGQKLQMSNLVDVDWNSVISSYVMQQAALQASYKTFTDMQGMSLFQLNR
# B2: native FlgL of the hook-filament junction tip (natural protein)
# chain: MRISTQMMYEQNMSGITNSQAEWMKLGEQMSTGKRVTNPSDDPIAASQAVVLSQAQAQNSQYALARTFATQKVSLEESVLSQVTTAIQTAQEKIVYAGNGTLSDDDRASLATDLQGIRDQLMNLANSTDGNGRYIFAGYKTEAAPFDQATGGYHGGEKSVTQQVDSARTMVIGHTGAQIFNSITSNAVPEPDGSDSEKNLFVMLDTAIAALKTPVEGNNVEKEKAAAAIDKTNRGLKNSLNNVLTVRAELGTQLSELSTLDSLGSDRALGQKLQMSNLVDVDWNSVISSYVMQQAALQASYKTFTDMQGMSLFQLNR
# B3: full-length FliD, as in the fusion constructs (natural protein)
# chain: MASISSLGVGSNLPLDQLLTDLTKNEKGRLTPITKQQSANSAKLTAYGTLKSALEKFQTANTALNKADLFKSTVASSTTEDLKVSTTAGAAAGTYKINVTQLAAAQSLATKTTFATTKEQLGDTSVTSRTIKIEQPGRKEPLEIKLDKGDTSMEAIRDAINDADSGIAASIVKVKENEFQLVLTANSGTDNTMKITVEGDTKLNDLLAYDSTTNTGNMQELVKAENAKLNVNGIDIERQSNTVTDAPQGITLTLTKKVTDATVTVTKDDTKAKEAIKSWVDAYNSLVDTFSSLTKYTAVEPGEEASDKNGALLGDSVVRTIQTGIRAQFANSGSNSAFKTMAEIGITQDGTSGKLKIDDDKLTKVLKDNTAAARELLVGDGKETGITTKIATEVKSYLADDGIIDNAQDNVNATLKSLTKQYLSVSNSIDETVARYKAQFTQLDTMMSKLNNTSSYLTQQFTAMNKS
# B4: FliD^2C (A91C/A168C) (natural protein)
# chain: MASISSLGVGSNLPLDQLLTDLTKNEKGRLTPITKQQSANSAKLTAYGTLKSALEKFQTANTALNKADLFKSTVASSTTEDLKVSTTAGACAGTYKINVTQLAAAQSLATKTTFATTKEQLGDTSVTSRTIKIEQPGRKEPLEIKLDKGDTSMEAIRDAINDADSGICASIVKVKENEFQLVLTANSGTDNTMKITVEGDTKLNDLLAYDSTTNTGNMQELVKAENAKLNVNGIDIERQSNTVTDAPQGITLTLTKKVTDATVTVTKDDTKAKEAIKSWVDAYNSLVDTFSSLTKYTAVEPGEEASDKNGALLGDSVVRTIQTGIRAQFANSGSNSAFKTMAEIGITQDGTSGKLKIDDDKLTKVLKDNTAAARELLVGDGKETGITTKIATEVKSYLADDGIIDNAQDNVNATLKSLTKQYLSVSNSIDETVARYKAQFTQLDTMMSKLNNTSSYLTQQFTAMNKS
# B5: native FliD of the flagellar tip (natural protein)
# chain: MASISSLGVGSNLPLDQLLTDLTKNEKGRLTPITKQQSANSAKLTAYGTLKSALEKFQTANTALNKADLFKSTVASSTTEDLKVSTTAGAAAGTYKINVTQLAAAQSLATKTTFATTKEQLGDTSVTSRTIKIEQPGRKEPLEIKLDKGDTSMEAIRDAINDADSGIAASIVKVKENEFQLVLTANSGTDNTMKITVEGDTKLNDLLAYDSTTNTGNMQELVKAENAKLNVNGIDIERQSNTVTDAPQGITLTLTKKVTDATVTVTKDDTKAKEAIKSWVDAYNSLVDTFSSLTKYTAVEPGEEASDKNGALLGDSVVRTIQTGIRAQFANSGSNSAFKTMAEIGITQDGTSGKLKIDDDKLTKVLKDNTAAARELLVGDGKETGITTKIATEVKSYLADDGIIDNAQDNVNATLKSLTKQYLSVSNSIDETVARYKAQFTQLDTMMSKLNNTSSYLTQQFTAMNKS
# B6: FliD d0 domain truncation construct (FliD^d1d2d3, residues from 44 to 411) (domain or fragment)
# chain: LTAYGTLKSALEKFQTANTALNKADLFKSTVASSTTEDLKVSTTAGAAAGTYKINVTQLAAAQSLATKTTFATTKEQLGDTSVTSRTIKIEQPGRKEPLEIKLDKGDTSMEAIRDAINDADSGIAASIVKVKENEFQLVLTANSGTDNTMKITVEGDTKLNDLLAYDSTTNTGNMQELVKAENAKLNVNGIDIERQSNTVTDAPQGITLTLTKKVTDATVTVTKDDTKAKEAIKSWVDAYNSLVDTFSSLTKYTAVEPGEEASDKNGALLGDSVVRTIQTGIRAQFANSGSNSAFKTMAEIGITQDGTSGKLKIDDDKLTKVLKDNTAAARELLVGDGKETGITTKIATEVKSYLADDGIIDNAQDNV
# B7: FliC D1D2D3 (residues 45-455), as in the FliD-FliC fusion (domain or fragment)
# chain: AAGQAIANRFTANIKGLTQASRNANDGISIAQTTEGALNEINNNLQRVRELAVQSANSTNSQSDLDSIQAEITQRLNEIDRVSGQTQFNGVKVLAQDNTLTIQVGANDGETIDIDLKQINSQTLGLDTLNVQQKYKVSDTAATVTGYADTTIALDNSTFKASATGLGGTDQKIDGDLKFDDTTGKYYAKVTVTGGTGKDGYYEVSVDKTNGEVTLAGGATSPLTGGLPATATEDVKNVQVANADLTEAKAALTAAGVTGTASVVKMSYTDNNGKTIDGGLAVKVGDDYYSATQNKDGSISINTTKYTADDGTSKTALNKLGGADGKTEVVSIGGKTYAASKAEGHNFKAQPDLAEAAATTTENPLQKIDAALAQVDTLRSDLGAVQNRFNSAITNLGNTVNNLTSARSRIE
# Legend:
# [1] = target: FliD D1 domain (FliD^d1) (Salmonella enterica serovar Typhimurium) (UniProt P16328); experiment: NMR titration
# [2] = target: FliD D1 domain (FliD^d1) (Salmonella enterica serovar Typhimurium) (UniProt P16328); experiment: NMR titration; remark: listed apart in the source
# cryo-EM structure [3] = target: the molecule itself; experiment: cryo-EM structure
# cryo-EM structure [4] = target: the molecule itself; experiment: cryo-EM structure; remark: listed apart in the source
# cryo-EM structure [5] = target: the molecule itself; experiment: cryo-EM structure; remark: listed apart in the source
# cross-linking = target: the molecule itself; experiment: cross-linking
# cryo-EM structure [6] = target: the molecule itself; experiment: cryo-EM structure; remark: listed apart in the source
# [7] = target: B3; experiment: cryo-EM structure
molecule,measurement,setting,value
"FliC, flagellin (unlabeled, for NMR titration) (from UniProt P06179 1-495) (natural protein)",Kd,[1],1650 µM
same,stoichiometry N,[1],1
B1,Kd,[2],100 µM
B2,stoichiometry N,cryo-EM structure [3],11
B3,stoichiometry N,cryo-EM structure [4],10
same,stoichiometry N,cryo-EM structure [5],5
B4,stoichiometry N,cross-linking,5
B5,stoichiometry N,cryo-EM structure [3],5
B6,stoichiometry N,cryo-EM structure [6],5
B7,stoichiometry N,[7],1
